This note sets out measurements from article PMC4569481.

The experiment concerns the target Dihydrolipoamide dehydrogenase (Lpd) of P. aeruginosa, recombinant full length (Lpd^1-478) (P. aeruginosa strain PAO1) (UniProt Q9I3D1). Briefly: ELISA; Lpd (5 μg/ml) coated on microtiter plates overnight at 4°C; vitronectin (0.01–12.5 μg/ml), recombinant vitronectin constructs (5 μg/ml) or clusterin (0.01–20 μg/ml) added 1 h at RT; detected with antibodies, absorbance at 492 nm. In general terms: In an ELISA, binding on a coated surface is turned into a signal by an enzyme label.

Dihydrolipoamide dehydrogenase (Lpd) of P. aeruginosa, recombinant full length (Lpd^1-478) (P. aeruginosa strain PAO1), sequence (Q9I3D1 whole entry): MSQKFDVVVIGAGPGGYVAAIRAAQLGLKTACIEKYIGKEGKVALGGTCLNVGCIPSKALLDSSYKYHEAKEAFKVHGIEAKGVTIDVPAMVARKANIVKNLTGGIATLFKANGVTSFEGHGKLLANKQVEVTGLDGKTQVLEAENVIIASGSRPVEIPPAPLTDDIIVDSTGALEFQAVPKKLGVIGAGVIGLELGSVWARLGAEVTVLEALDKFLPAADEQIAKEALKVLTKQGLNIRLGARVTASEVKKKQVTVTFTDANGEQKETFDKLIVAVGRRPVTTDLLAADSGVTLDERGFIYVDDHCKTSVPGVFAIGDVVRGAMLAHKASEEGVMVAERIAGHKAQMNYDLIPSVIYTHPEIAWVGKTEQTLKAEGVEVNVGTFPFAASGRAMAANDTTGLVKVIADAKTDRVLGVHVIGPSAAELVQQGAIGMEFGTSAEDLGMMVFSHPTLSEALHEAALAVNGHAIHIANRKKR

For vitronectin^80-353 (domain or fragment), the percent reduction of binding (ELISA signal; reference not named) amounted to 70%.
